Measured values taken from publication PMC12723162, “Alphaherpesvirus pUL21 homologs use non-canonical sequences to compete with cellular adaptors for protein phosphatase 1 binding” (The Journal of Biological Chemistry, 2025).
Positions count from the first letter of the chain named.

B1: pORF38-GFP (protein)
chain: MEFPYHSTVSYNGVTFYFNERATRAYFICGGCLISIPRKHGGEIAKFGHVVRGVGPGDRSVASYVRSELNRTGKTWAVSSNNNCVFLDRVALLAAGSGAVDRDLCGTFDVEVEDPTLADYLVSLPVTHLTLVAGVDVTRENKLKLFPTPTAINTTNGFMYVPNEASFSLVYMRMLELPESLQELVSGLFDGTPEIRDALNGSNDDEKTSIIVSRRAADVVTEDVKADDVPISGEPYSEKQPRRRKKSDHITLSNFVQIRTIPRVMDIWDPRHKATTHCIRALSCAVFFADEVIFKARKWPGLEDELNEARETIYTAVVAVYGERGELPFFGHAYGRDLTSCQRFVIVQYILSRWEAFNCYAVIEDLTRSYVNALPSDDDTDQVAQDLIRTIVDTANSLLREVGFIGTLAETLLFLPLPQLPCYKETSHLAKKEGVRILRLAKTGVGLSDTVPVDVSVTERHEYEISRYLDTLYSGDPCYNGAVRLCRLLGSSIPIALYYNTISGNAFEPYFAGRRYIAYLGALFFGRVHQTPFGDGKKTQR
modifications: left off: GFP, end not stated, kept
B2: pORF38-FV255AA (protein)
chain: B1 chain with F255A, V256A
modifications: left off: GFP, end not stated, kept
B3: pUL21-FV242AA (protein)
chain: MELSYATTMHYRDVVFYVTTDRNRAYFVCGGCVYSVGRPCASQPGEIAKFGLVVRGTGPDDRVVANYVRSELRQRGLQDVRPIGEDEVFLDSVCLLNPNVSSELDVINTNDVEVLDECLAEYCTSLRTSPGVLISGLRVRAQDRIIELFEHPTIVNVSSHFVYTPSPYVFALAQAHLPRLPSSLEALVSGLFDGIPAPRQPLDAHNPRTDVVITGRRAPRPIAGSGAGSGGAGAKRATVSEAAQVKHIDRVGPAGVSPAPPPNNTDSSSLVPGAQDSAPPGPTLRELWWVFYAADRALEEPRADSGLTREEVRAVRGFREQAWKLFGSAGAPRAFIGAALGLSPLQKLAVYYYIIHRERRLSPFPALVRLVGRYTQRHGLYVPRPDDPVLADAINGLFRDALAAGTTAEQLLMFDLLPPKDVPVGSDVQADSTALLRFIESQRLAVPGGVISPEHVAYLGAFLSVLYAGRGRMSAATHTARLTGVTSLVLAVGDVDRLSAFDRGAAGAASRTRAAGYLDVLLTVRLARSQHGQSV
modifications: left off: GFP, end not stated, kept
B4: pUL21ΔLR (protein)
chain: MELSYATTMHYRDVVFYVTTDRNRAYFVCGGCVYSVGRPCASQPGEIAKFGLVVRGTGPDDRVVANYVRSELRQRGLQDVRPIGEDEVFLDSVCLLNPNVSSELDVINTNDVEVLDECLAEYCTSLRTSPGVLISGLRVRAQDRIIELFEHPTIVNVSSHFVYTPSPYVFALAQAHLPRLPSSLEALVSGLFDGIPAPRQPLDAHNPRTDVVITGTVSEFVQVKHIDRVGPAGVSAPPGPTLRELWWVFYAADRALEEPRADSGLTREEVRAVRGFREQAWKLFGSAGAPRAFIGAALGLSPLQKLAVYYYIIHRERRLSPFPALVRLVGRYTQRHGLYVPRPDDPVLADAINGLFRDALAAGTTAEQLLMFDLLPPKDVPVGSDVQADSTALLRFIESQRLAVPGGVISPEHVAYLGAFLSVLYAGRGRMSAATHTARLTGVTSLVLAVGDVDRLSAFDRGAAGAASRTRAAGYLDVLLTVRLARSQHGQSV
modifications: left off: GFP (from the vector pEGFP-N1), end not stated, kept
B5: pUL21ΔR (protein)
chain: MELSYATTMHYRDVVFYVTTDRNRAYFVCGGCVYSVGRPCASQPGEIAKFGLVVRGTGPDDRVVANYVRSELRQRGLQDVRPIGEDEVFLDSVCLLNPNVSSELDVINTNDVEVLDECLAEYCTSLRTSPGVLISGLRVRAQDRIIELFEHPTIVNVSSHFVYTPSPYVFALAQAHLPRLPSSLEALVSGLFDGIPAPRQPLDAHNPRTDVVITGRRAPRPIAGSGAGSGGAGAKRATVSEFVQVKHIDRVGPAGVSAPPGPTLRELWWVFYAADRALEEPRADSGLTREEVRAVRGFREQAWKLFGSAGAPRAFIGAALGLSPLQKLAVYYYIIHRERRLSPFPALVRLVGRYTQRHGLYVPRPDDPVLADAINGLFRDALAAGTTAEQLLMFDLLPPKDVPVGSDVQADSTALLRFIESQRLAVPGGVISPEHVAYLGAFLSVLYAGRGRMSAATHTARLTGVTSLVLAVGDVDRLSAFDRGAAGAASRTRAAGYLDVLLTVRLARSQHGQSV
modifications: left off: GFP (from the vector pEGFP-N1), end not stated, kept
B6: pUL21ΔL (protein)
chain: MELSYATTMHYRDVVFYVTTDRNRAYFVCGGCVYSVGRPCASQPGEIAKFGLVVRGTGPDDRVVANYVRSELRQRGLQDVRPIGEDEVFLDSVCLLNPNVSSELDVINTNDVEVLDECLAEYCTSLRTSPGVLISGLRVRAQDRIIELFEHPTIVNVSSHFVYTPSPYVFALAQAHLPRLPSSLEALVSGLFDGIPAPRQPLDAHNPRTDVVITGTVSEFVQVKHIDRVGPAGVSPAPPPNNTDSSSLVPGAQDSAPPGPTLRELWWVFYAADRALEEPRADSGLTREEVRAVRGFREQAWKLFGSAGAPRAFIGAALGLSPLQKLAVYYYIIHRERRLSPFPALVRLVGRYTQRHGLYVPRPDDPVLADAINGLFRDALAAGTTAEQLLMFDLLPPKDVPVGSDVQADSTALLRFIESQRLAVPGGVISPEHVAYLGAFLSVLYAGRGRMSAATHTARLTGVTSLVLAVGDVDRLSAFDRGAAGAASRTRAAGYLDVLLTVRLARSQHGQSV
modifications: left off: GFP (from the vector pEGFP-N1), end not stated, kept

Test system: endogenous PP1α
Assay: GFP affinity capture / co-IP of endogenous PP1α with GFP-tagged bait
Type: binding, human
Details: HEK 293T cells, 24 h post-transfection, GFP-Trap, immunoblot, representative of two independent experiments
Text: Bacterial expression plasmids encoding the mouse PP1γ catalytic domain (residues 7–300)-H6 and pUL21-H6, and mammalian expression vectors encoding pUL21(FV242AA)-GFP, pORF38-GFP and pORF38(FV255AA)-GFP, were described previously ([23]). We note that the mouse and human PP1γ catalytic domains share 100% amino acid identity. pORF38-NLT-H6 was generated by sub-cloning residues 1 to 263 of ORF38 into the vector pOPTnH ([52]). pUL21-RVxF-H6 was generated by inserting the mutations A237V and V239F into pUL21-H6 by QuikChange site-directed mutagenesis. Human PP1α was cloned from HeLa cell cDNA into a vector derived from pF5K (Promega) with an N-terminal Myc epitope tag via restriction-based cloning, and point mutations were introduced into Myc-PP1α by QuikChange mutagenesis. A plasmid encoding pUL21-GFP was generated by sub-cloning a codon-optimized synthetic UL21 gene (GeneArt) into pEGFP-N1 (Clontech), yielding an identical pUL21-GFP amino acid sequence as used in ([23]). pUL21-ΔL, -ΔR and -ΔLR were generated from this vector via inverse PCR, and point mutations were introduced via QuikChange mutagenesis.
Mycoplasma-free human embryonic kidney 293T (HEK 293T) cells (American Type Culture Collection #CRL-3216) were maintained in Dulbecco’s modified Eagle’s medium (DMEM) with high glucose (Merck), supplemented with 10% (v/v) heat-inactivated fetal calf serum and 2 mM L-glutamine (complete DMEM) in a humidified 5% CO2 atmosphere at 37 °C. The identity of the cell line was not independently confirmed.
Monolayers of HEK 293T cells were transfected with 7.7 μg of DNA per 9 cm dish, using 18 μg/ml 25 kDa branched polyethylenimine (Merck) or using TransIt-LT1 (Mirus) in accordance with the manufacturer’s instructions. Cells were harvested 24 h post-transfection and incubated for 30 min in ice-cold 10 mM Tris pH 7.5, 150 mM NaCl, 0.5 mM EDTA, 0.5% Igepal CA-630 (a.k.a. NP-40), 1% (v/v) EDTA-free protease inhibitor cocktail (Merck) before clarification at 21,000×g for 10 min at 4 °C. Lysate protein concentrations were measured using the bicinchoninic acid (BCA) assay (Pierce) and normalized before affinity capture using GFP-Trap resin (ChromoTek) following the manufacturer’s protocol. Samples were eluted by heating the resin to 95 °C for 5 min in 45 μl 2 × SDS-PAGE loading buffer. Proteins were separated by SDS-PAGE and transferred to 0.45 μm nitrocellulose membranes (PerkinElmer or Cytiva). Membranes were stained with Ponceau S and imaged using a G:Box XX9 (Syngene) before blocking in Tris-buffered saline with 0.1% TWEEN-20 (TBS-T) supplemented with 5% (w/v) non-fat milk powder. Immunoblotting was performed using antibodies diluted in blocking buffer as listed below, and immunoblots were imaged using an Odyssey CLx (LI-COR Biosciences). Densitometry was performed using Image Studio Lite version 5.2 (LI-COR Biosciences), and statistical tests were performed using Prism version 7 (GraphPad).
The following primary antibodies and dilutions were used for immunoblotting: rabbit anti-CERT 1:10,000 (Abcam #Ab72536), mouse anti-PP1α 1:1000 (Santa Cruz #sc-271762), mouse anti-Myc 1:4000 (Millipore #05–724), rat anti-tubulin (clone YL1/2) hybridoma supernatant 1:40 ([54]). The anti-CERT antibody was validated using a knock-out cell line. The anti-PP1α antibody has been validated by siRNA knockdown ([55]). The anti-Myc antibody was validated using control experiments lacking Myc-tagged transfected constructs ([56]). The anti-tubulin antibody has been validated by immunofluorescence microscopy, immuno-electron microscopy and radiolabeled immunosorbent assay ([54]). Secondary antibodies from LI-COR Biosciences were diluted 1:10,000 as follows: IRDye 680RD goat anti-rat (#926–68029) and goat anti-mouse (#926–68020), or IRDye 800CW goat anti-rabbit (#926–32221).

Row | Molecule | Co-IP of endogenous PP1α | Co-IP of endogenous PP1α (listed as pORF38) | Co-IP of endogenous PP1α (listed as FV255AA) | Co-IP of endogenous PP1α (listed as FV242AA)
1 | B1 | consistently co-immunoprecipitated more efficiently by pORF38-GFP than by pUL21-GFP | efficiently precipitate endogenous PP1α |  | 
2 | B2 | the interaction is disrupted by mutation of the TROPPO motif |  | abolished binding to PP1 | 
3 | B3 | the interaction is disrupted by mutation of the TROPPO motif |  |  | PP1α coIP was abolished
4 | B4 | completely abolishes PP1α binding |  |  | 
5 | B5 | binding is retained |  |  | 
6 | B6 | completely abolishes PP1α binding |  |  | 
